Type in all cases: biochemical, Moorena bouillonii
Holding throughout (conditions): Fe2+ and molecular oxygen required

Substrate in data set [1]: CC1=N[C@@H](C(=O)O)CS1
The experiment in a line: kinetic analysis of 2-methylthiazole formation.

Substrate in data set [2]: CC1=N[C@H](C(=O)O)CS1
The experiment in a line: kinetic analysis of 2-methylthiazole formation.

Substrate in data set [3]: O=C(O)[C@@H]1CSC(c2ccccc2)=N1
The experiment in a line: kinetic analysis of 2-phenylthiazole formation.

The results in this text go back to publication PMC10127204, “Unique Initiation and Termination Mechanisms Involved in the Biosynthesis of a Hybrid Polyketide-Nonribosomal Peptide Lyngbyapeptin B Produced by the Marine Cyanobacterium Moorena bouillonii” (ACS Chemical Biology, 2023).

B1: LynB7 (Moorena bouillonii) (protein)
chain: MVKTYEIIDADSHVLEPLDLWEKYLEPEFKHFAPKEDYKLEGEPILYKFNPSDFVESEAAKRAQEDPDIYKGGYDPKARVELMEQMGSDMTFLYPTIGLWMWSVDTMDSKLAGAFVRSYNNWLHDFCNYAPQKLKGIGAINQHDPEEMVPELQRIVEFGWKAVFIRPNPVKGRILSDPVYEPFWSECERLNVAVTVHEGTHSRLPTTGADRFDSRFALHACSHPMEQMMALLALIEGGVLERHPQLRVGFFESGCGWLPYWLWRLDEEYENLYYEVKDNVKMKPSEYFHRQCYTGFEVDEPYLAELIEYIGADKLLFGSDFPHMDHPNFIESVDETLALREKLPEDVIKKILHDNPLRYYGLT
Broadly, the Km is the concentration of substrate that gives half-maximal velocity. On to B1, for which the Km worked out at 3600 ± 700 µM in data set [1], 2100 ± 200 µM in data set [2] and 1500 ± 300 µM in data set [3]. The kcat in data set [1] was found to be 1.3 ± 0.1 s^–1; in data set [2], 17 ± 0.7 s^–1; in data set [3] it was 11 ± 0.5 s^–1.
